Key:
[1] = biological target: KCBP (construct not stated, in the KCBP-KIC complex) (Arabidopsis); assay: SEC; Superdex-200 run of the KCBP-KIC complex that had been isolated on Ni-NTA agarose; in the presence of Ca2+
[2] = biological target: His-tagged KIC (Arabidopsis) (UniProt Q9ZPX9); assay: as above
[3] = biological target: the molecule itself; assay: SEC; Superdex 200 16/60; 50 mM Tris pH 7.5, 150 mM NaCl, 2 mM MgCl2, 0.1 mM ATP, 1 mM TCEP, and either 1 mM EGTA or 2 mM CaCl2; isolated proteins

KCBP (construct not stated, in the KCBP-KIC complex) (domain or fragment)
stoichiometry N [1]: 2

His-tagged KIC (from UniProt Q9ZPX9 1-135) (natural protein)
stoichiometry N [2]: 2

B1: Arabidopsis KCBP (884–1253) (domain or fragment, UniProt Q9FHN8 884-1253, looked up)
chain: DMKGKIRVYCRIRPLNEKESSEREKQMLTTVDEFTVEHPWKDDKRKQHIYDRVFDMRASQDDIFEDTKYLVQSAVDGYNVCIFAYGQTGSGKTFTIYGHESNPGLTPRATKELFNILKRDSKRFSFSLKAYMVELYQDTLVDLLLPKSARRLKLEIKKDSKGMVFVENVTTIPISTLEELRMILERGSERRHVSGTNMNEESSRSHLILSVVIESIDLQTQSAARGKLSFVDLAGSERVKKSGSAGCQLKEAQSINKSLSALGDVIGALSSGNQHIPYRNHKLTMLMSDSLGGNAKTLMFVNVSPAESNLDETYNSLLYASRVRTIVNDPSKHISSKEMVRLKKLVAYWKEQAGKKGEEEDLVDIEEDRT
notes: motor domain with intact regulatory helix and negative coil; pET28b construct encoding a tag-free protein; source: E. coli BL21(DE3), purified (Calmodulin-Sepharose 4B)
stoichiometry N [3]: 2

B2: Arabidopsis KCBP (820–1225) (domain or fragment, UniProt Q9FHN8 820-1225, looked up)
chain: NSDMLLLQNNLKELEELREMKEDIDRKNEQTAAILKMQGAQLAELEILYKEEQVLRKRYYNTIEDMKGKIRVYCRIRPLNEKESSEREKQMLTTVDEFTVEHPWKDDKRKQHIYDRVFDMRASQDDIFEDTKYLVQSAVDGYNVCIFAYGQTGSGKTFTIYGHESNPGLTPRATKELFNILKRDSKRFSFSLKAYMVELYQDTLVDLLLPKSARRLKLEIKKDSKGMVFVENVTTIPISTLEELRMILERGSERRHVSGTNMNEESSRSHLILSVVIESIDLQTQSAARGKLSFVDLAGSERVKKSGSAGCQLKEAQSINKSLSALGDVIGALSSGNQHIPYRNHKLTMLMSDSLGGNAKTLMFVNVSPAESNLDETYNSLLYASRVRTIVNDPSKHISSKEMVRL
notes: with the predicted N-terminal dimerization motif, without the regulatory helix; pET32 Xa/Lic; the tag's removal is told only in the general purification methods; the motility assay held motors by an anti-His antibody; also called N-terminal dimer of KCBP without the regulatory helix; source: E. coli BL21(DE3), purified (Ni-NTA, TEV-protease); not shown: His6-Trx, N-terminal, cleaved
stoichiometry N [3]: 2

B3: Arabidopsis KIC (29–135) (domain or fragment, UniProt Q9ZPX9 29-135, looked up)
chain: MAEKMDVEEFVSELCKGFSLLADPERHLITAESLRRNSGILGIEGMSKEDAQGMVREGDLDGDGALNQTEFCVLMVRLSPEMMEDAETWLEKALTQELCNHNLSSMP
notes: KIC, Ca2+ ion sensor and regulator of KCBP, Arabidopsis, residues 29-135; The results speak of a deletion of the first 35 N-terminal residues; The tag's removal is told only in the general purification methods; source: E. coli BL21(DE3), purified (Ni-NTA, TEV-protease); not shown: His6-TRX, N-terminal, cleaved
stoichiometry N [3]: 2

B4: full length Arabidopsis KIC (1–135) (natural protein, UniProt Q9ZPX9 1-135, looked up)
chain: MEPTEKSMLLETTSTTKMETKYEDMLPVMAEKMDVEEFVSELCKGFSLLADPERHLITAESLRRNSGILGIEGMSKEDAQGMVREGDLDGDGALNQTEFCVLMVRLSPEMMEDAETWLEKALTQELCNHNLSSMP
notes: KIC, Ca2+ ion sensor and regulator of KCBP, Arabidopsis, residues 1-135; The tag's removal is told only in the general purification methods; source: E. coli BL21(DE3), purified (Ni-NTA, TEV-protease); not shown: His6, N-terminal, cleaved
stoichiometry N [3]: 2
